This is an account of results in article PMC7949043, “Allosteric regulation of the nickel-responsive NikR transcription factor from Helicobacter pylori”.

The target of data set [1] is T1, HpNikR (Helicobacter pylori G27 (strain from …, UniProt A1YSQ9 1-148)).
T1 sequence: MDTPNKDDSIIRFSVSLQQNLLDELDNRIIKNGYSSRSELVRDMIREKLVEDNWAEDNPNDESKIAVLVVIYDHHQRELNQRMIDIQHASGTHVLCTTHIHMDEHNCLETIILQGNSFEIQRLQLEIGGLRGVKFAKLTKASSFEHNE
The data set is described as follows: fluorescence anisotropy; Ni(II) 1.2 eq per monomer; Hill n = 1.8 ± 0.1; FA: 5 nM labeled DNA, 20 mM Tris pH 7.6, 100 mM NaCl, 3 mM MgSO4, temperature not stated (metal loading at room temperature); 19F-NMR: same buffer with 10% D2O, 400-900 uM monomer, DNA 1 eq per tetramer, variable temperature from 4 C. Conditions: protein: recombinant; tags: none; chain copies: 4; label: fluorescein at central T in the spacer of strand 1 (printed [F] after T14); blunt. A general note: Fluorescence polarisation rises when a labelled molecule tumbles more slowly, as on binding a larger partner.

Data set [2] concerns the target T1, HpNikR. As to the kind of experiment: fluorescence anisotropy; Ni(II) 1.2 eq per monomer; Hill n = 1.9 ± 0.2; FA: 5 nM labeled DNA, 20 mM Tris pH 7.6, 100 mM NaCl, 3 mM MgSO4, temperature not stated (metal loading at room temperature); 19F-NMR: same buffer with 10% D2O, 400-900 uM monomer, DNA 1 eq per tetramer, variable temperature from 4 C. Conditions: protein: recombinant; tags: none; chain copies: 4; label: fluorescein at central T in the spacer of strand 1 (printed [F] after T14); blunt.

B1: ureA-F (32 bp ureA promoter) (dsDNA)
DNA 1: ATATAACACTAATTCATTTTAAATAATAATTA
DNA 2: TAATTATTATTTAAAATGAATTAGTGTTATAT
By Kd is commonly meant the constant that tells how readily two partners part at equilibrium. B1: the Kd with HpNikR [1] was 4.5 ± 0.6 nM.

B2: ureA-perf-F (32 bp) (dsDNA)
DNA 1: ATATATTATTAATTCATTTTAAATAATAATTA
DNA 2: TAATTATTATTTAAAATGAATTAATAATATAT
On to B2, for which the equilibrium dissociation constant (Kd) with HpNikR [2] amounted to 4.7 ± 0.4 nM.
